Assay results: PMC10196373, “Conformational analysis and interaction of the Staphylococcus aureus transmembrane peptidase AgrB with its AgrD propeptide substrate” (Frontiers in Chemistry, 2023)

T1: AgrB1 with C-terminal SmBiT (agrBCS) (Staphylococcus aureus, UniProt P0C1P7 1-189)
T1 construct: AgrB1, transmembrane peptidase of S. aureus agr group 1; agrB1 gene amplified with its upstream P2 promoter; A 16 amino acid flexible linker joins AgrB and SmBiT; also called AgrB-SmBiT; pSK-P2-agrBCS; source: S. aureus SH1000, from the agr P2 promoter, chromosomal (attB2) or on low copy plasmid pSK5630, in live cells; not shown: SmBiT (NanoBiT), C-terminal, kept
T1 sequence: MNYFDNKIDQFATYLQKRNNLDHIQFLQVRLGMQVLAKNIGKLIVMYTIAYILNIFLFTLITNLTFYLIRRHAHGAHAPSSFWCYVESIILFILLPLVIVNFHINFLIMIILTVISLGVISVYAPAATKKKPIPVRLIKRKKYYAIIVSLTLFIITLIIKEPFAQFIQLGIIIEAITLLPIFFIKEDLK

B1: AgrD1 with C-terminal LgBiT (agrDCL) (peptide)
chain: MNTLFNLFFDFITGILKNIGNIAAYSTCDFIMDEVEVPKELTQLHE
notes: AgrD1 pro-peptide of S. aureus agr group 1; PCR-amplified agrD1 put in place of agrB1 in the split luciferase plasmid; A 16 amino acid flexible linker joins AgrD and LgBiT; also called pAgrDCL; AgrD-LgBit; source: S. aureus SH1000, from the agr P2 promoter on low copy plasmid pSK5630, in live cells; not shown: LgBiT (NanoBiT), C-terminal, kept
B2: T7-AgrD1, AIP pro-peptide AgrD1 with a 14 residue T7 epitope leader tag (peptide)
peptide: B1 chain
notes: AgrD1 pro-peptide of S. aureus agr group 1; also called AgrD-T7; T7-tagged AgrD; source: synthetic peptide (solid phase synthesis), bought: CS Bio

Columns and labels:
[1] = molecular target: T1, AgrB1 with C-terminal SmBiT (agrBCS); assay: split reporter (BiFC, NanoBiT); live S. aureus SH1000 cells; one tagged fusion on the chromosome (attB2), the other on a low copy plasmid, both from the agr P2 promoter; cells at OD600 1.0, Nano-Glo live cell reagent (furimazine), bioluminescence (RLU); details: partners not purified
[2] = molecular target: the molecule itself; assay: new band of the complex on Tris-glycine gel, Western blot; purified AgrB with DOPG (1 mg/mL) incubated with T7-AgrD1 (2 uM) 30 min at 37 C in 20 mM Tris-HCl pH 7.5, 5 mM MgSO4; heated to 55 C for 5 min in SDS sample buffer, 14% Tris-glycine gel without SDS; blots probed with an AgrB nanobody or an anti-T7 antibody

Row | Binder | luminescent signal relative to the other constructs [1] | binding result [2]
1 | B1 | > 10 times | 
2 | B2 |  | binds
